Results: paper PMC11160672

Target: Biotin carboxylase AccC (E. coli) (UniProt P24182)
Assay: SEC

stoichiometry N: 1
Substance: Biotin-carboxy carrier protein AccB (from UniProt P0ABD8 1-156) (natural protein)
